Biological target: trimeric fusion protein PA-sfGFP-tLM511, O15230;P07942;P11047
Assay: flow cytometry on cells
Details: 0.5 mM Mn2+; for response (arbitrary units/cell): 30 nM sfGFP-tLM511, parent: est. 3.0, read off a plot

response (arbitrary units/cell) | ratio to parent | Substance
1.4 | 4.8 | human α6β1 integrin transiently expressed on Expi293F cells, wild type (from UniProt P05556) α6:D205A
– | 10.7 | human α6β1 integrin transiently expressed on Expi293F cells, wild type (from UniProt P05556) α6:E219A
2.1 | 2.6 | human α6β1 integrin transiently expressed on Expi293F cells, wild type (from UniProt P05556) α6:E221A

From PMC8241838
